# According to paper PMC3807708:
# How the values were obtained:
# [1] = molecular target: extracellular domain of human interferon-γ receptor 1 (IFN-γ-Rx), mutant N70G (human) (UniProt P15260); assay: SPR; His-tagged receptor immobilised on Ni2+-coated HTG chip; IFN-γ-SC as analyte; PBST; 15 °C; preliminary data of temperature dependency
# [2] = molecular target: extracellular domain of human interferon-γ receptor 1 (IFN-γ-Rx), wild type (human) (UniProt P15260); assay: as above
# IFN-γ-Rx H222D (human) = IFN-γ-Rx H222D (human) (UniProt P15260); assay: SPR; ProteOn XPR36; His-tagged receptor immobilised on Ni2+-activated HTG chip; IFN-γ-SC as analyte, 1.2 to 99 nM; PBST (PBS pH 7.4, 0.005% Tween20); 25°C; 1:1 Langmuir with drift model; doubly referenced
# IFN-γ-Rx H222R (human) = IFN-γ-Rx H222R (human) (UniProt P15260); assay: as above
# IFN-γ-Rx K115Y (human) = IFN-γ-Rx K115Y (human) (UniProt P15260); assay: as above
# IFN-γ-Rx N65R (human) = IFN-γ-Rx N65R (human) (UniProt P15260); assay: as above
# IFN-γ-Rx N70G (human) = IFN-γ-Rx N70G (human) (UniProt P15260); assay: as above
# IFN-γ-Rx N96W (human) = IFN-γ-Rx N96W (human) (UniProt P15260); assay: as above
# [3] = molecular target: IFN-γ-Rx N96W + H222R (human) (UniProt P15260); assay: as above
# IFN-γ-Rx S71E (human) = IFN-γ-Rx S71E (human) (UniProt P15260); assay: as above
# IFN-γ-Rx S95R (human) = IFN-γ-Rx S95R (human) (UniProt P15260); assay: as above
# [4] = molecular target: extracellular domain of human interferon-γ receptor 1 (IFN-γ-Rx), wild type (human) (UniProt P15260); assay: as above
# [5] = molecular target: extracellular domain of human interferon-γ receptor 1 (IFN-γ-Rx), mutant N70G (human) (UniProt P15260); assay: SPR; His-tagged receptor immobilised on Ni2+-activated HTG chip (ProteOn XPR36); IFN-γ-SC as analyte, 1.2 to 99 nM; PBST (PBS pH 7.4, 0.005% Tween20); 25 °C; 1:1 Langmuir with drift; averages over four different batches of IFN-γ-SC
# [6] = molecular target: extracellular domain of human interferon-γ receptor 1 (IFN-γ-Rx), mutant N96W (human) (UniProt P15260); assay: as above
# [7] = molecular target: extracellular domain of human interferon-γ receptor 1 (IFN-γ-Rx), wild type (human) (UniProt P15260); assay: as above
substance,measurement,setting,value
single-chain form of human interferon-γ (IFN-γ-SC) (ligand),Kd,[1],14.7 nM
same,Kd,[2],16.8 nM
same,fold change of Kd against WT,IFN-γ-Rx H222D (human),2.2 fold
same,Kd,IFN-γ-Rx H222R (human),29.4 nM
same,koff,IFN-γ-Rx H222R (human),0.0349 s⁻¹
same,kon,IFN-γ-Rx H222R (human),1.19e+06 M⁻¹ s⁻¹
same,Kd,IFN-γ-Rx K115Y (human),39.9 nM
same,koff,IFN-γ-Rx K115Y (human),0.0391 s⁻¹
same,kon,IFN-γ-Rx K115Y (human),979000 M⁻¹ s⁻¹
same,Kd,IFN-γ-Rx N65R (human),71.2 nM
same,koff,IFN-γ-Rx N65R (human),0.0628 s⁻¹
same,kon,IFN-γ-Rx N65R (human),882000 M⁻¹ s⁻¹
same,Kd,IFN-γ-Rx N70G (human),23.6 nM
same,koff,IFN-γ-Rx N70G (human),0.0264 s⁻¹
same,kon,IFN-γ-Rx N70G (human),1.12e+06 M⁻¹ s⁻¹
same,Kd,IFN-γ-Rx N96W (human),6.34 nM
same,koff,IFN-γ-Rx N96W (human),0.00909 s⁻¹
same,kon,IFN-γ-Rx N96W (human),1.43e+06 M⁻¹ s⁻¹
same,Kd,[3],4.16 nM
same,koff,[3],0.01 s⁻¹
same,kon,[3],2.4e+06 M⁻¹ s⁻¹
same,fold change of Kd against WT,IFN-γ-Rx S71E (human),2 fold
same,Kd,IFN-γ-Rx S95R (human),69.8 nM
same,koff,IFN-γ-Rx S95R (human),0.0454 s⁻¹
same,kon,IFN-γ-Rx S95R (human),650000 M⁻¹ s⁻¹
same,Kd,[4],30.8 nM
same,koff,[4],0.0378 s⁻¹
same,kon,[4],1.24e+06 M⁻¹ s⁻¹
same,Kd,[5],19 nM
same,Kd,[6],5.3 nM
same,Kd,[7],21 nM
